Data on 3 substances can be found in patent publication US20090312247.

The subject of data set [1] is full-length NPRA (SEQ ID NO: 2).
Data set [2] deals with 5'-FLAG epitope-tagged sNRF^(806-900).
Data set [3] deals with FLAG-epitope tagged NPRA stably over-expressed in HEK293 cells (HEK-NPRA cells).

Sequence of full-length NPRA (SEQ ID NO: 2) (chain, as listed by the source): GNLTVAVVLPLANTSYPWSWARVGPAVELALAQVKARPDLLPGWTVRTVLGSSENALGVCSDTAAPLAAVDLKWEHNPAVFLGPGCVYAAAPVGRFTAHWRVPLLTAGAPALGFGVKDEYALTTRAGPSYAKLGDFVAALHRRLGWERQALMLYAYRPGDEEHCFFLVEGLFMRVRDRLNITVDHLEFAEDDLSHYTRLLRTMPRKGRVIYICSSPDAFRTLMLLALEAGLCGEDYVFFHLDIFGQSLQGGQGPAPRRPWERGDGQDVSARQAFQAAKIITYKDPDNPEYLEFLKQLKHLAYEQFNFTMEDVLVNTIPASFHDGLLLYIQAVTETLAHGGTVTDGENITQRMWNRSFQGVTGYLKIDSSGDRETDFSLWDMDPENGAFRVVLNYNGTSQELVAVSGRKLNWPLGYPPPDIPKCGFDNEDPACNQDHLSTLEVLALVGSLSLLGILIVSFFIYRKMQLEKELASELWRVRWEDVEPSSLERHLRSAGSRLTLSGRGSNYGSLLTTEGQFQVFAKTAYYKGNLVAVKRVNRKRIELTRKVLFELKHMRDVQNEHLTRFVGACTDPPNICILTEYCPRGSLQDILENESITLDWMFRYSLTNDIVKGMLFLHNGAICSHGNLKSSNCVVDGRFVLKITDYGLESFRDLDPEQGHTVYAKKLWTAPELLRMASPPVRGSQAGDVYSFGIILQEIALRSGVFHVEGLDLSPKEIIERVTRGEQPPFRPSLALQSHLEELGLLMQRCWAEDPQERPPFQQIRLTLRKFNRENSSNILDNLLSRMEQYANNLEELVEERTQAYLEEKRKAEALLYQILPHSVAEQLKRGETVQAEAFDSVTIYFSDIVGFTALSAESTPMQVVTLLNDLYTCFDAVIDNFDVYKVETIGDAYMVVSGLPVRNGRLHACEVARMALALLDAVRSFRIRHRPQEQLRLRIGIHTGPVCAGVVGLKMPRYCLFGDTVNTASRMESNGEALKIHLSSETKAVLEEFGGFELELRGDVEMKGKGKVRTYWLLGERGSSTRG
Sequence of 5'-FLAG epitope-tagged sNRF^(806-900) (chain, as listed by the source): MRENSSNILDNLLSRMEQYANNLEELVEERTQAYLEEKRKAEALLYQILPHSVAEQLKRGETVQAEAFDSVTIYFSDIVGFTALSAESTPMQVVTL

In the case of recombinant PKG, the “phosphorylation ([35S]ATPγS incorporation, autoradiography of Cos7 membrane lysates)” value in data set [1] is recorded as “SDS page gels demonstrated a phosphorylated 137 kD protein that corresponded to full-length NPRA”.
Turning to “cGMP-dependent protein kinase I (PKG), endogenous in neonatal rat cardiac fibroblasts”, the “ANP-induced NPRA phosphorylation in cardiac fibroblasts ([35S]ATPγS incorporation)” value in data set [2] is given as “both KT5823 or expressed sNRF^(806-900) protein reduced ANP-induced NPRA phosphorylation to control levels”.
As to “cGMP-dependent protein kinase I (PKG) in HEK-NPRA cells”, in data set [3], the “ANP-induced phosphorylation of a 137-kD protein ([35S]ATPγS, autoradiography)” value was “Robust phosphorylation of a 137-kD protein occurred in the NPRA-expressing cells, but not in control cells”.
